Molecular target: growth hormone receptor on ZFL cells (zebrafish liver cell line) (zebrafish)
Experiment: cell-based or functional assay

B1: recombinant yellow grouper (Epinephelus awoara) growth hormone (ligand)
chain: MITDGQRLFSIAVSRVQHLHLLAQRLFSDFESSLQTEEQRQLNKIFLQDFCNSDYIISPIDKHETQRSSVLKLLSISYRLVESWEFPSRSLSGGSAPRNQIFPKLSELKTGILLLIRANQDGAELFPDSSALQLAPYGNYYQSLGADESLRRTYELLACFKKDMHKVETYLTVAKCRLSPEANCTLLEHHHHHH
B1 was tested, and the “increase in cell proliferation relative to no growth hormone added (MTS-formazan conversion assay, ZFL cells)” value was 58.3%.

B2: recombinant ayu (Plecoglossus altivelis) growth hormone (ligand)
chain: MSENQRLFSIAVNRAQHLHLLAQKMFNDFEGNLSPDDRRQMNKIFLQDFCNSDSIISPVDKHETQKSSVQKLLHISFRLVESWEYPSQALSSSLSLSRFSEIPLKLTDLKLGIDTILRGTQDGLLSLEDNEAQQLPPYENYYQNLGGDDNIHRSYELLACFKKDMHKVETYLTVAKCRRSLEANCTLLEHHHHHH
B2 was tested, and the “increase in cell proliferation relative to no growth hormone added (MTS-formazan conversion assay, ZFL cells)” value was 118%.

From patent US6429305 (ACADEMIA SINICA, dated 2002)
